Measurements from paper PMC9621051 (mAbs, 2022).

Biological target: the molecule itself
Assay: native MS

B1: phospholipase D3 (PLD3) (enzyme)
chain: MKPKLMYQELKVPVEEPAGELPVNEIEAWKAAEKKARWVLLVLILAVVGFGALMTQLFLWEYGDLHLFGPNQRPAPCYDPCEAVLVESIPEGLEFPNATTSNPSTSQAWLGLLAGAHSSLDIASFYWTLTNNDTHTQEPSAQQGEEILQQLQALAPRGVKVRIAVSKPNGPLADLQSLLQSGAQVRMVDMQKLTHGVLHTKFWVVDQTHFYLGSANMDWRSLTQVKELGVVMYNCSCLARDLTKIFEAYWFLGQAGSSIPSTWPRPFDTRYNQETPMEICLNGTPALAYLASAPPPLCPSGRTPDLKALLSVVDSARSFIYIAVMNYLPTMEFSHPRRFWPAIDDGLRRAAYERGVKVRLLVSCWGHSEPSMRSFLLSLAALRDNHTHSDIQVKLFVVPADEAQARIPYARVNHNKYMVTERAVYIGTSNWSGSYFTETAGTSLLVTQNGHDGLRSQLEDVFLRDWNSLYSHNLDTAADSVGNACRLL
For B1, the “stoichiometry N” value was 2.
